Source: the supplement of paper PMC7125110
± gives the standard error. This sample holds only a part of the variants without activity.

B1: glmS ribozyme (parent)
chain: AUAAAAGCGCCAGAACUACAGAAAUGUAGUUGACGAGGAGGAGGUUUAUCGAAUUUUCGGCGGAUGCCUCCAAA

Tests used:
Details in all cases: with glucosamine-6-phosphate
[1] = variants of: B1; assay: self-cleavage kobs at 640 uM GlcN6P; higher = faster cleavage; RNA array
Outline: (§1)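 Ribozyme variants carrying barcodes were transcribed in situ on sequenced MiSeq chips by E. coli RNA polymerase and tracked at 37 °C with a hybridised Cy3 probe. They were exposed to 40 μM to 10 mM glucosamine-6-phosphate in HEPES/KCl/Mg(OAc)2 buffer. kobs came from exponential decay fits of normalised per-tile medians, and kcat and KM from weighted Michaelis–Menten fits.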

[2] = variants of: B1; assay: self-cleavage kobs at 2500 uM GlcN6P; higher = faster cleavage; RNA array
Outline: as §1

[3] = variants of: B1; assay: self-cleavage kobs at 10000 uM GlcN6P; higher = faster cleavage; RNA array
Outline: as §1

AUAAAAGCGCCAGAACUACAGAAAUGUAGUUGACGAGGAGGGGGUUUAUCGAAUCUUCGGCGGAUUCCUCCAAA [A42G U55C G66U] was tested, and the “self-cleavage kobs at 640 uM GlcN6P” value [1] was 0.000398 ± 7.7e-05 s⁻¹, the “self-cleavage kobs at 2500 uM GlcN6P” value [2] was 0.000634 ± 0.00014 s⁻¹ and the “self-cleavage kobs at 10000 uM GlcN6P” value [3] was 0.00167 ± 0.00029 s⁻¹.

In the case of AUAAAAGCGCCAGAAGUACAGAAAUGUAGUUGACCAGGAGGAGGUUUAUCGAAUAAUCGGCGGAUGCCUCCAAA [C16G G35C U55A U56A], the “self-cleavage kobs at 640 uM GlcN6P” value [1] is reported as under 1e-05 s⁻¹ and the “self-cleavage kobs at 2500 uM GlcN6P” value [2] is reported as under 1e-05 s⁻¹.

In the case of AUAAAAGCGCCAGAACUACAGAAAUGUAGUUGACGCGGAGGAGGUGUAUCGAAAGUUCGGCGGAUGCCUCCAAA [A36C U46G U54A U55G], the “self-cleavage kobs at 640 uM GlcN6P” value [1] is reported as under 1e-05 s⁻¹.

For AUAAAUGCGCCAGAACUACAGAAAUGUAGUUGACGAAGAGGAGGUUUAUCGAAUGUUCGGCGGAUGCCUCGAAA [A6U G37A U55G C71G], the “self-cleavage kobs at 640 uM GlcN6P” value [1] was under 1e-05 s⁻¹ and the “self-cleavage kobs at 10000 uM GlcN6P” value [3] was under 1e-05 s⁻¹.

With AUAAAAGCGCCAGAACUACAGAAAUGUAGUUGACGAGGAGGAGGUUCAUCGAAUAUUCGGCGGAUGCCUCCAAA [U47C U55A] the “self-cleavage kobs at 640 uM GlcN6P” value [1] was 0.00113 ± 0.00019 s⁻¹, the “self-cleavage kobs at 2500 uM GlcN6P” value [2] was 0.00273 ± 0.00077 s⁻¹ and the “self-cleavage kobs at 10000 uM GlcN6P” value [3] was 0.00496 ± 0.0011 s⁻¹.

For AUAAAAGCGCCAGAACUACAGAAAUGUAAUUGACGAGGAGGAGGUUUAUCGCAUUUGCGGCGGGUGCCUCAAAA [G29A A52C U57G A64G C71A], the “self-cleavage kobs at 640 uM GlcN6P” value [1] was under 1e-05 s⁻¹.

With AUAAAAGGGCCAGCACUACAGAAAUGUACUUGAAGAGGAGGAGGUUUAUCGAAUUUUCGGCGGAUGUCUCCAAA [C8G A14C G29C C34A C67U] the “self-cleavage kobs at 640 uM GlcN6P” value [1] was under 1e-05 s⁻¹.

AUAAAAGCGCCAGAACUACAGAAAUGUAGUUGACGAGGAGGAGAGUUAAGGAAUUUUCGGCGGAUGCCUCCAAA [G44A U45G U49A C50G] was tested, and the “self-cleavage kobs at 640 uM GlcN6P” value [1] was under 1e-05 s⁻¹ and the “self-cleavage kobs at 2500 uM GlcN6P” value [2] was under 1e-05 s⁻¹.

For AUAAAUGCGCCAGAACUACAGAAAUGUAGUUGACGAUGAGGAGGUUUCUCGAAUUUUCGGCGGAUGGCUCCAAA [A6U G37U A48C C67G], the “self-cleavage kobs at 640 uM GlcN6P” value [1] was under 1e-05 s⁻¹ and the “self-cleavage kobs at 2500 uM GlcN6P” value [2] was under 1e-05 s⁻¹.

With AUAAAAGCGCCAGAAAUACAGAAAUGUAGUUGACGAGGAGGAGGUUUAUCUAAUUUUCGGCGGAUGCCGCCAAA [C16A G51U U69G] the “self-cleavage kobs at 640 uM GlcN6P” value [1] was 9.84e-05 ± 4.1e-05 s⁻¹ and the “self-cleavage kobs at 2500 uM GlcN6P” value [2] was 0.000199 ± 9.6e-05 s⁻¹.

With AUAAAAGCGCCAGAACUACAGAAAUGUAGUUGACGAGGUGGAGGUUUAUCGAAUUUUCGGCGGAUGAUUCCAAA [A39U C67A C68U] the “self-cleavage kobs at 640 uM GlcN6P” value [1] was 3.93e-05 ± 1.2e-05 s⁻¹ and the “self-cleavage kobs at 2500 uM GlcN6P” value [2] was 0.000112 ± 3e-05 s⁻¹.

For AUAAAAGCGCCAGUACUACAGAAAUGUAGUUGACAAGGAGGAGGUUUAUCGAAUUUUCGGCGGGUGCCUCCAAA [A14U G35A A64G], the “self-cleavage kobs at 640 uM GlcN6P” value [1] was under 1e-05 s⁻¹.

With AUAAAAGCGCCAGAACUACAGAAAUGUAGUUGACGAGGAGGAGGUUUAUCGAGUUUUCGAGGGAUGCCUCCAAA [A53G G60A C61G] the “self-cleavage kobs at 640 uM GlcN6P” value [1] was under 1e-05 s⁻¹.

In the case of AUAAAAGCGCCAGAACUACAGAAAUGUACUUGACGAGGAGGAGGUUUAUCGAAUUAUCGGCGGAUGCCUCAAAA [G29C U56A C71A], the “self-cleavage kobs at 640 uM GlcN6P” value [1] is reported as 4.27e-05 ± 1.8e-05 s⁻¹.

For AUAAAAGCGCGAGAACUACAGAAAUGUAGUUGACGAGGAGGAGGUUUAUCGAUUGUUCGGCGGAUGGCUCCAAA [C11G A53U U55G C67G], the “self-cleavage kobs at 640 uM GlcN6P” value [1] was 0.000112 ± 4.8e-05 s⁻¹.

With AUAAAAGCGCCAGAACUACAGAAAUGUAGUUGACGAGGAGUAUGCUUAUCGAUUUUUCGGCGGAUGCCUCUAAA [G41U G43U U45C A53U C71U] the “self-cleavage kobs at 640 uM GlcN6P” value [1] was under 1e-05 s⁻¹ and the “self-cleavage kobs at 2500 uM GlcN6P” value [2] was under 1e-05 s⁻¹.

With AUAAAAGCGCCAGAACUACAGAAAUGUAGUUGACGAGGAGGAGGUUUAUCGAAUUUUCGUCGGAUCCCUUCAAA [G60U G66C C70U] the “self-cleavage kobs at 640 uM GlcN6P” value [1] was under 1e-05 s⁻¹.

For AUAAAAGCGUCAGAACUACAGAAAUGUAGUUGACGAGGAGGAGGUUUAACGAAUAUUCGGCGGAUGCCUCCAAA [C10U U49A U55A], the “self-cleavage kobs at 640 uM GlcN6P” value [1] was under 1e-05 s⁻¹.

With AUAAAAGCGCCAGAACUACAGAAAUGUAGUUGACAAGGGGGAGGUUUAUCGAAUUUUCGGUGGAUGCCUCCAAA [G35A A39G C61U] the “self-cleavage kobs at 640 uM GlcN6P” value [1] was under 1e-05 s⁻¹ and the “self-cleavage kobs at 2500 uM GlcN6P” value [2] was under 1e-05 s⁻¹.

For AUAAACGCGCCACAACUACAGAAAUGUAGUUGACGAGGAGGAGGUUGUUCGAAUUUUCGGCGGAAGCCUCCAAA [A6C G13C U47G A48U U65A], the “self-cleavage kobs at 640 uM GlcN6P” value [1] was under 1e-05 s⁻¹.

AUAAAAGCGCCAGAACUACAGAAAUGUAGUUGACGAGGUGUAGGUUUAUCGAAUUGUCGGCGGAUGCCUCCAAA [A39U G41U U56G] was tested, and the “self-cleavage kobs at 640 uM GlcN6P” value [1] was 6.4e-05 ± 1.9e-05 s⁻¹ and the “self-cleavage kobs at 2500 uM GlcN6P” value [2] was 0.000106 ± 2.3e-05 s⁻¹.

For AUAAAAGCGCCAGAACUACAGAAAUGUAGUUGACGAGUAGGAUGUAUUUCGAAUUUUCGGAGGAUGGCUCCAAA [G38U G43U U46A A48U C61A C67G], the “self-cleavage kobs at 640 uM GlcN6P” value [1] was under 1e-05 s⁻¹.

AUAAAAGCGCAAGAACUACAGAAAUGUAGUUGACGAGGAGGAGGUCUAUCGAAUUUUCGGCGGAUGCCUCCAAA [C11A U46C] was tested, and the “self-cleavage kobs at 640 uM GlcN6P” value [1] was under 1e-05 s⁻¹.

For AUAAAAGCGCCCGAACUACAGAAAUGUAGAUGACAAGGAGGAGGUUUAUCGAAUUUUCGGCGGAUGCCUCCAAA [A12C U30A G35A], the “self-cleavage kobs at 640 uM GlcN6P” value [1] was under 1e-05 s⁻¹, the “self-cleavage kobs at 2500 uM GlcN6P” value [2] was under 1e-05 s⁻¹ and the “self-cleavage kobs at 10000 uM GlcN6P” value [3] was under 1e-05 s⁻¹.
